Among the data in the NTF2 design screens of Basanta et al. (2020) are protease stability score values, retold here.

The series can be described thus: protease stability score; higher = more stable; yeast display proteolysis, trypsin and chymotrypsin.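 Further: relative to predicted unfolded state with 0 unfolded-like and 1 meaning tenfold more protease.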
In the case of “HEEEHHMRELFKRFWHLFETGDWDKLAKNADPNVRSDINGVDRHGREEVIHELKRIWDELGIDHLELKEVHIQGNKVHSDGKLVYNGVSRKTHIELIVYNGVLKRMSIEIH”, the protease stability score was determined as 1.38.
As to “TEEEKHLRELTDRVLHEEETGDWRTLKELADPNVRFDYRYGDYFFHSHGREDVVKHLRHVFQEMRIERVHVKDRKNYNGKVEIHTEIHGVYNGVRFRTEVTIKIVIIDGRIHSHIWEIN”, the protease stability score was found to be 0.305.
To “SEDEEKSHRFRRELLESLFTGDFDRFKELADPHVKVDINGRDIHGMELLVRIWRREEKEAGVNYTKDHDLKDHDIINGRAKIDIRVHGIFNGREQTVEVYIFSLKVDGRWILTFMKIN” belongs 1.45; to “DEERENAERMLKAWVEILETGDEHRISRLLDPNVQFQIGDKHLHGREDVLRHLSEMIKKVKNLTISIHSINIQGDKVHVDGHIHVNGVDHKNDLILLKVNGRWFVTSLKIE”, 1.78.
In the case of “SEEDERTYKVAKDWHEALQTGNEEIMERLLDPHVRIDVVVDGKKSHKHGMEVVSETLRRIREHLRMKWEIHRVDAQGDKLFVDGRYHIEVGDKKEHYIMHVLMIVIDGRLHSLTIRNE”, the protease stability score turned out to be 1.1.
The sequence “TEEERIDHEYEERLKHSFETGDEETIKKMIDPNARVEIDGKDHHGREVMAHLISRIDVLHTVDTTDVSIQGDKINLNLRVHGHVNGKHIDRTLHVRIRKINGKWHIEHFKII” had a protease stability score of 1.04.
To “DEETEIVERYERILVKALTTGDWRRIERLMDPNVKSVVNGREYHGMERYLELYRRIRSEIRINDLRIHKVTEVGNKIEAITVWHVEVDGRIEDLETRVFLRKIDGRWILEREEVA” belongs 0.827; to “SEEHEHIRRVWEEIRRVLETGDEEALMRMIDPNVRIRNVQGDKELDIHGRESVVRRILKIFQEIWFDFEDRHIDIQGDKLHIEGHLILRVNGREHRLDVREVWVVVNGVIHTVEFMVE”, 1.29; to “DEEHEHQHEFAQIIMEMWKTGDWKTMFKLADPNARTIFEGRRLHGRELIWEFLFRLLKKLGVDHEKDRHSHNIGDKIHIHGEEEIGDKKVEVHIHIVIFNGRVKELEIRRREL”, 0.511.
“DEKERESEEFIRRFISVYETGDWKTMFELADPHTRMIDIVNGRDIEIIGREAIRHIFEERMRLLGIKHFHIDHSSRQGNKYHQKVTIRVDGQEIEAHVHVIVVDGVLKQIEVRSK” returned a protease stability score of 1.06.
“DKETKDSEKMSRMYFEYLLTGDFEKLLEMADPDVRFEFNGKEYIGMHETIEILERIWKDLGIKHSELKKVELQGEKAIIDGRIKYGDKEVNVKIILLVWNGKMREQRIHYQ” came in with a protease stability score of 1.1.
The figure for “HDKEHLSEYLLDLTEYLIRTGDFKLMLKMADPHVRNHIIIGEFELEYHGWHVYIHWLEKVLRRFGVDHVHVTHRNAQGDKVEMDTHLEVNGRRHDVDQHWVYINGRIEHVRFRIR” is 0.794; for “DDWEKLYEELTRLWLKLLITGDEEILIKLMDPHYRYHQGDKELHGRESYAEEVRREYEHARVKIHVERIHVFENHVEVNGELKIEINGRHYSIRTRIHLNIVNGKIKSIEIRTD” it is 1.39; for “EEERRDAEIALTVIEHHWETGDEKDLDEMLDPDVRVIINGQRYHGREWLSRFREDLGATYHDVHVDDIRIYDGRVEMDFHVRGKVGDKERDTRVRIFMIKFDGRWVVEQITLE” it is 1.95.
The figure for “SEVHRDLRKAVDYFEEVFRTGDEDKMNNLLDPNVRWIVNGKDLVGREKAIRRYHEHRKTLGVNHFETRIDDQEVYGNKATLHGELTIHVNGRDIHHETRLNVSKINGVWYIESFIID” is 0.949; for “SEMEEVYKRWVDLFRHAMDTGNEDLHLHLLDPHVRININGVELIGRDDDRDHLERLRKELGVSRFEMRVRIRDVDIQGDKIRSETEFTVIFNGREIIIKTRLILEKVNGRWILRSLEYN” it is 1.39.
With “DHEFEDSKRATEETLHLIETGNEEKIRQLADPHVRIIIFINGRDIHLHGREELSRHISEMGVDHRRWTELRLFEGHAENDVKVNFNGREFKVIIFVRKVNGRWVIERLEVHVI”, the protease stability score was found to be 2.25.
In the case of “DEEKELNENLAKIILHMFHTGDEKRWSKMADPHMRANINGVTIHGRELVIKEFLHWRHRLGVKHEEIHHIDIQGDKVRTDSHVDIDGQRVNIILRVVVVNGRLHSEEVEIR”, the protease stability score is 0.787.
Consider “DEDHKHWKKLTEILFHVFRTGDWHLLEKLADPNVRTVVNGVEIHGREHLADIMWLHKETLGIDHMELRSIEYQGEKFIIHAEIDVNGRKVDVHIRSVIIDGRMHSISIEVHHH”, for which the protease stability score was determined as 1.99.
As to “DDRERERHRFLRELHESLETGDERELTRMLDPHARWVVGDKQHHGRETLTKFVSEVALRADHFHIEISRVREQGEFIDIDVRVILIIGDKVITIDQRLINLKVDGRWFLHERIVH”, the protease stability score is 1.05.
In turn, “DEHEEAFREFLRLLLESLRTGDEHTLKRLIDPHARIDIDGQEFVGMEHLEHILKNMIKHIRYEDIEIEHFEFINGQVRFKTRYHGRINGKRDTLHIHIIITKINGKWVLEQLEFR” showed a protease stability score of 2.15.
In the case of “TEDERDAKRMAETMVKLWETGDWRTLFELADPDMRFEYGDKRFHGREKLIKVLRDIFERLGIDHSHVRDFKIIFVGEKVEVRLDIETHFDGRTEEFHIEINVRKIDGRWRLKSMHIEIR”, the protease stability score was 2.02.
With “DEDREEAIKTVEETVELIATGDFEKFEELVDPNVRIDVNGVDVIGREDWRRRVEEIRISMRDSDIKRVRSVNGVMHVDGRIELEVHVNGKTKNVNLRTHWYIVKINGRWLIHSVHFV”, the protease stability score is 1.99.
“SEVNKHVEEISKLMVKFLLTGNEDLHKSLADPNYYSDVNGRHVIGRHHVEELWHLFLNEIRIDNIHIEDMKIQGEKAHIQGRIIGTVNGKHDELHATMIVVVIDGRIHSLKVEWR”: the protease stability score is 1.
As for “DEREKRLKDIALIVMHLLLTGDEERFHELFDPDTKMTLIFNGQIETSHGMEEVRELLRYWLEEIRIEHYHLTEIHLIGDKTHVHGELVGEVNGKRFKTHIHITIVVIDGKVHSVEFELR”, the protease stability score was found to be 1.77.
As for “DELTEELRHLAHLMIVSLLTGDPSVFQRYLDPNTKSVVNGKNIHGMEEFDKIILEELKRVDHLEIELKRIDAFDGVTHIDGKLKLRIGDKTVETRMEVNIFTINGKVKSIEISRQ”, the protease stability score was 1.33.
Regarding “SELEEQERTHIHKLMNAIETGDEDLFRRLFDPNVRVDVDGVEFIGREHLLILLRHMRMHARHFKEEDFSVQGDKVHLYGHLDEEIEINGKVTRRHIHVTWVLVKVNGKWVIHSQYVL”, the protease stability score was 1.41.
The figure for “SEEDRDLHESAKLSEEIEDTGDEHMIHKQADPNVRLDYNGREFHGREMFSKMMIEWFTKLGVDHVHRKEMRIQGDWIHLHFEVRVGDKRHEVHVVALKVNGRWLHHSFEVHER” is 1.16; for “DEQHKEVRTFLEIHINMRATGNEEILFHQVDPHVRLIINGRQFHGWEEYEKFAHTSARFFKNVQIRIHRVEVYIQGDKIHVNMHVWYNVNGQTMEVDLHSEMIKVDGQWRLDSEIISIR” it is 1.33; for “DEFTELTREVLHRIVTHLRTGNEEELARLMDPNARLEINGKEFHGREEILRLIHELEKKMGIKHVDMVIRRDTIIGDYARVNGEIIIIVDGKEIRLDTEIFILKIDGKWFIRTESIR” it is 1.21.
With “SERHEILRLITEIWDHLKHTGDEDSLADLFDPHARMIWNGRDIHGWSNLIEAFRKILEFLGIDRIHIENTEMRLQGDKSHNRTDLNVNGKHLDTRVHLDVVDGRIRVTEVRIH”, the protease stability score was determined as 1.06.
With “SEDEELVELMMKLIMELRKTGDEESIRRLADPNVRLDFNGRDNHGREHATKWIRDIVEHLRLRRFEIHNVEFQGNKAVVRSRIIMDWDGQDFHLDVIIILNKFNGRWFIHSQIVH”, the protease stability score was 1.49.
Sequence “SREEEIMRRFLELLILAFRTGDEDTYLKMLDPRVRLEINGRDLHGRETVREHYKDERDELGVSQFHIWVRDLRVQGDKIETEGHLEFDGRWLDIHFHAHFVDGRLKSFRIEIR” had a protease stability score of 1.32.
On to “DEEEEKAKHVLELWSRAMLTGDEDEYKKLADPHTRLIVDGQTFHGWENFTKSHNQIKNIKIDDVHVENHHIQGNKMFVDLRFEMEFNGRILHKETHLFIEKIDGKWLIRTQEIH”, for which the protease stability score was 0.767.
In turn, “SEDEEAIERFLREFVKAERTGDEKTILSLMDPHVRIHQGDWEVHGRDDLRHFFHRIDHVRSRFHLTHVDHQGDKAIFKGTVEYHIHVDGKDIHSTSSVDIHVRKINGRWLMHNVHIE” gave a protease stability score of 1.63.
On to “DEEHHLAKELVRLLQEALSTGDEDEVKRLIDPDYRLIIGEFIFHGREDLERWLHHARVSVKDSHLRHVKVQGDKVEINGERNLIVIIDGKKIERKHRLHLIIIKVDGRWFMESEKYD”, for which the protease stability score is 1.01.
In the case of “DEDHKHAERFVEEFITLILTGNEELLKRLADPNVKIDFDGVEIIGREILNSHTKKQINRIDHIRIHIRHIHVQGDKAIIDLEVRIIVDGKEDRNETHLFLTKVNGRWILTSWKVG”, the protease stability score stood at 1.6.
On to “SEDEERTRRISKHMLELYKTGDEDTWIKEADPNTINKIHAENHRIENHGREEVHKVLVELWERLGVKHVDLKDFDMQGEKVIIFIELRAENRIVTNIIRIVIIDGKIKSIEIELRFI”, for which the protease stability score is 1.21.
To “DETDEHAHKMFEIIIHYLLTGDWKELIKLADPHVKLEFDINGKTIDLVGRELFTEFFLRFKNVRSEIDDVRHIGDKNHARVRVNWDGRDTEVQIDIVIIDGVVHRVRLIFK” belongs 2.59; to “SEVEESAKIIAELWAHSVETGDEHTLRELMDPNTRFEYGDKERHGRENVTKYFLHFQKWLGFKHIRLEIEDSKAIGDKIKIDLTIKLHQGEKHDFVIVQLFVTKVNGRWVIHSMIVH”, 1.58.
“DEIHEDFDRFLEEYLESLRTGDWKKVEELHDPNTRVDIGDKHVIGMDLLAHLETKDFIKRGARVDMHVRRFEIQGNKIIIHGELRIHYGDKHVRINIHLDIRKINGKWIIRHEEIR” gave a protease stability score of 1.13.
“DHEHRELRELIHRIEKNIRTGNWDVVEKMLDPHARIDIDGKEIHGRDRLVEEMVKQWEKMGVDHIEIKLEDYKVSENEVYLDMIFVIRVGDKVIFIDSHIISRKIDGRWIIHSIHFR”: the protease stability score worked out at 1.95.
For “HEDEVFFKLILHLLLEDYRTGDWESLEKFLDPSYKLVFDGKDIHGRERAVTIMRHEAHEMRIEDYHIRSLETQGDKLLLHGKFQGIVNGQRRESEIHLVILKVDGRWLWHSVQIN”, the protease stability score stood at 1.01.
The sequence “SEEERDLKEEADRFLDHVRTGDEDTLRDLIDPNVKLRVDQGDKDIELHGREEVIKFLVHMRIHHVKLNNFRIQGNKIIHDIRVDGTINGVRRDRREHLILHIVDGKIKIVEIRVE” registered a protease stability score of 1.28.
Regarding “SEEDEMVRYVFELYAIAIETGDEDTLRNMFDPNAKIKFDGVDIHGRENIKRILREWRSSVHHWQIREKEIYGDKISLNVFQDLRFTIDGQFRRITTEVKVEIIKINGKWFFTHLEYI”, the protease stability score amounted to 0.995.
For “HENEEAAEHIFELFLDSLRTGDPDVVERLLDPHVKLDINGVEFHGREEAVHILMEEWKRLGIDHFEIKRIELRVYNGVVHIEIDSRTQVNGQKHHTKYRIIVIKINGRWHVNLLYIYIE”, the protease stability score was determined as 2.12.
“NEDHDVLNDLMTDHVHAVLTGDFRTLIHNIDPHTRVDINGVHFHGREEAVHLFEDLANRVPGVKLDVEEWRTYGDKLRSNVRWHFDGRTIDIHLVFLKINGKWLLESVKIN” showed a protease stability score of 1.9.
